Test results from patent US20210261937.

B1: hsSENP2 (protein)
chain: EFPEITEEMEKEIKNVFRNGNQDEVLSEAFRLTITRKDIQTLNHLNWLNDEIINFYMNMLMERSKEKGLPSVHAFNTFFFTKLKTAGYQAVKRWTKKVDVFSVDILLVPIHLGVHWCLAVVDFRKKNITYYDSMGGINNEACRILLQYLKQESIDKKRKEFDTNGWQLFSKKSQEIPQQMNGSDCGMFACKYADCITKDRPINFTQQHMPYFRKRMVWEILHRKLL
B2: bdSENP1^MutB protease (protein)
chain: PFVPLTDEDEDNVRHALGGRKRSETLSVHEASSIVITREILQCLNDKEWLNDEVINLYLELLKERELREPNKFLKCHFFNTFFYKKLINGGYDYKSVREWTTKRKLGYNLIDCDKIFVPIHKDVHWCLAVINIKEKKFQYLDSLGYMDMKALRILAKYLVDEVKDKSGKQIDVHAWKQEGVQNLPLQENGWDCGMFMLKYIDFYSRDMELVFGQKHMSYFRRRTAKEILDLKAG
B3: SUMOstar protease (protein)
chain: LVPELNEKDDDQVQKALASRENTQLMNRDNIEITVRDFKTLAPRRWLNSGIISFFMKYIEKSTPNTVAFNSFFYTNLSERGYQGVRRWMKRKKTQIDKLDKIFTPINLNQSHWALGIIDLKKKTIGYVDSLSNGPNAMSFAILTDLQKYVMEESKHTIGEDFDLIHLDCPQQPNGYDCGIYVCMNTLYGSADAPLDFDYKDAIRMRRFIAHLILTDALK

Assays:
[1] = target: scSUMO-MBP fusion protein
[2] = target: bdSUMO-MBP fusion protein
[3] = target: bdSUMO Mut13-MBP fusion protein
[4] = target: hsSUMO2-MBP fusion protein with the bdSUMO^Mut11 exchanges
[5] = target: scSUMO-MBP fusion protein with the bdSUMO^Mut1 exchanges
[6] = target: bdSUMO Mut10-MBP fusion protein
[7] = target: scSUMO-MBP fusion protein with the bdSUMO^Mut11 exchanges
[8] = target: bdSUMO^Mut1-MBP fusion protein
[9] = target: bdSUMO Mut8-MBP fusion protein
[10] = target: bdSUMO Mut15-MBP fusion protein
[11] = target: bdSUMO Mut14-MBP fusion protein
[12] = target: bdSUMO D67K-MBP fusion protein
[13] = target: bdSUMO Mut11-MBP fusion protein
[14] = target: hsSUMO2-MBP fusion protein with the bdSUMO^Mut1 exchanges
[15] = target: hsSUMO2-MBP fusion protein
[16] = target: bdSUMO Mut12-MBP fusion protein

Protein | cleavage of the SUMO fusion protein [1] | cleavage of the SUMO fusion protein [2] [% cleavage] | cleavage of the SUMO fusion protein [3] | cleavage of SUMO-MBP fusion, 1 h at 25 °C (FIG. 14) [4] | cleavage of SUMO-MBP fusion, 1 h at 25 °C (FIG. 14) [5] | cleavage of the SUMO fusion protein [6] | cleavage of SUMO-MBP fusion, 1 h at 25 °C (FIG. 14) [7] | cleavage of the SUMO fusion protein [8] | cleavage of the SUMO fusion protein [9] | cleavage of the SUMO fusion protein [10] | cleavage of the SUMO fusion protein [11] | cleavage of the SUMO fusion protein [12] | cleavage of the SUMO fusion protein [13] | cleavage of SUMO-MBP fusion, 1 h at 25 °C (FIG. 14) [14] | cleavage of the SUMO fusion protein [15] | cleavage of the SUMO fusion protein [16] | cleavage of 100 µM fusion, 1 h at 0 °C (FIG. 7) (SUMOstar-MBP fusion) | other results
B1 | 100 % cleavage | < 50 | resistant | allowed cleavage resistance against Ulp1, SUMOstar protease, hsSENP2 and bdSENP1 | allowed cleavage resistance against Ulp1, SUMOstar protease, hsSENP2 and bdSENP1 | resistant | allowed cleavage resistance against Ulp1, SUMOstar protease, hsSENP2 and bdSENP1 | resistant | resistant | resistant | resistant | resistant | resistant | allowed cleavage resistance against Ulp1, SUMOstar protease, hsSENP2 and bdSENP1 | 100 % cleavage | resistant | – | –
B2 | resistant | < 25 | 100 % cleavage | – | – | 100 % cleavage | – | 100 % cleavage | < 50 % cleavage | 100 % cleavage | 100 % cleavage | < 75 % cleavage | 100 % cleavage | – | resistant | 100 % cleavage | the SUMOstar-MBP fusion remained intact even at the highest protease concentration of 10 µM | cleavage of SUMO-MBP fusion (FIG. 14) [1]: wild type scSUMO and human SUMO-2 (hsSUMO2) fusion proteins remain intact even in the presence of extremely high concentration of bdSENP1^MutB; molar excess of substrate cleaved within one hour at 0 °C [8]: able to cleave a 500-fold molar excess of substrate within one hour at 0 °C; protease concentration that cleaves the cognate substrate, 1 h at 0 °C (FIG. 7) [8]: bdSENP1^MutB protease only cleaved its cognate substrate at a concentration of 200 nM; protease concentration that cleaves ≈95% of 100 µM substrate, 1 h at 0 °C [8]: only 200 nM of bdSENP1^MutB protease were enough to cleave ≈95% of the cognate substrate (bdSUMOmut 1); proteolytic efficiency against TEV protease [8]: around 1000-fold more efficient than the site-specific protease from the tobacco etch virus (TEV protease); proteolytic efficiency against bdSENP1 or Ulp1 on their cognate substrates [8]: only 5-fold less efficient as compared bdSENP1 or Ulp1; cleavage of SUMO-MBP fusion (FIG. 14) [15]: wild type scSUMO and human SUMO-2 (hsSUMO2) fusion proteins remain intact even in the presence of extremely high concentration of bdSENP1^MutB
B3 | 100 % cleavage | 100 | resistant | allowed cleavage resistance against Ulp1, SUMOstar protease, hsSENP2 and bdSENP1 | allowed cleavage resistance against Ulp1, SUMOstar protease, hsSENP2 and bdSENP1 | resistant | allowed cleavage resistance against Ulp1, SUMOstar protease, hsSENP2 and bdSENP1 | resistant | resistant | resistant | resistant | resistant | resistant | allowed cleavage resistance against Ulp1, SUMOstar protease, hsSENP2 and bdSENP1 | < 25 % cleavage | resistant | SUMOstar protease only recognized SUMOstar-MBP | cleavage of 100 µM fusion, 1 h at 0 °C (FIG. 7) [8]: left intact the bdSUMO^Mut1-MBP fusion protein even at the highest SUMOstar protease concentration of 10 µM; cleavage of bdSUMO-MBP variants by 10 µM SUMOstar protease, 2 h at 25 °C (FIG. 5) [12]: the D67K mutation alone was necessary and sufficient for blocking cleavage
